Test results taken from US20240101686A1.
Like-named read-outs stand apart in the source and are kept apart here.

Tests used:
[1] = target: human EGFRvIII on cells (human) (UniProt P00533); assay: FACS on CHO-K1-EGFRvIII 2G3 cells
Her2 protein (human) = Her2 protein (human) (UniProt P04626)
[2] = target: human EGFRvIII on cells (human) (UniProt P00533)
[3] = target: human EGFR-His-tagged fusion protein (human) (UniProt P00533)
[4] = target: human EGFR on cells (human) (UniProt P00533)
[5] = target: human EGFR on cells (human) (UniProt P00533); remark: listed apart in the source
[6] = target: human EGFR on cells (human) (UniProt P00533); remark: listed apart in the source
[7] = target: human EGFR on cells (human) (UniProt P00533); remark: listed apart in the source
[8] = target: human EGFR-His-tagged fusion protein (human) (UniProt P00533); remark: listed apart in the source
[9] = target: human EGFR on cells (human) (UniProt P00533); remark: listed apart in the source
[10] = target: human EGFR-His-tagged fusion protein (human) (UniProt P00533); remark: listed apart in the source
[11] = target: monkey EGFR protein (commercial, SB, catalog number 90285-C08H) (monkey); assay: ELISA, coated monkey EGFR protein, antibody 1 nM
[12] = target: monkey EGFR protein (commercial, SB, catalog number 90285-C08H) (monkey); assay: ELISA, coated monkey EGFR protein, antibody 0.001 nM
[13] = target: human EGFRvIII-His tag protein (extracellular domain Leu25-Ser378) (human) (UniProt P00533)
[14] = target: human EGFRvIII-His tag protein (extracellular domain Leu25-Ser378) (human) (UniProt P00533); remark: listed apart in the source
[15] = target: cynomolgus monkey EGFR on HEK293T-monkey EGFR cells (cynomolgus monkey); assay: FACS, HEK293T-monkey EGFR cells
[16] = target: monkey EGFR protein (commercial, SB, catalog number 90285-C08H) (monkey); assay: ELISA, coated monkey EGFR protein, antibody 0.01 nM
[17] = target: monkey EGFR protein (commercial, SB, catalog number 90285-C08H) (monkey); assay: ELISA, coated monkey EGFR protein, antibody 100 nM
[18] = target: human EGFR endogenously expressed on A431 cells (human) (UniProt P00533)
[19] = target: murine EGFR protein (murine) (UniProt Q01279)
[20] = target: murine EGFR protein (murine) (UniProt Q01279); remark: listed apart in the source
[21] = target: murine EGFR protein (murine) (UniProt Q01279); remark: listed apart in the source
[22] = target: human EGFRvIII-His tag protein (extracellular domain Leu25-Ser378) (human) (UniProt P00533); remark: listed apart in the source
[23] = target: monkey EGFR protein (commercial, SB, catalog number 90285-C08H) (monkey); assay: ELISA, coated monkey EGFR protein, antibody 0 nM (blank)
[24] = target: cynomolgus monkey EGFR on HEK293T-monkey EGFR cells (cynomolgus monkey); assay: FACS, HEK293T-monkey EGFR cells (specificity assay)
[25] = target: human EGFRvIII-His tag protein (extracellular domain Leu25-Ser378) (human) (UniProt P00533); remark: listed apart in the source
[26] = target: monkey EGFR protein (commercial, SB, catalog number 90285-C08H) (monkey); assay: ELISA, coated monkey EGFR protein, antibody 0.1 nM
[27] = target: human EGFRvIII-His tag protein (extracellular domain Leu25-Ser378) (human) (UniProt P00533); remark: listed apart in the source
[28] = target: monkey EGFR protein (commercial, SB, catalog number 90285-C08H) (monkey); assay: ELISA, coated monkey EGFR protein, antibody 10 nM
[29] = target: murine EGFR protein (murine) (UniProt Q01279); remark: listed apart in the source
[30] = target: murine EGFR protein (murine) (UniProt Q01279); remark: listed apart in the source
[31] = target: monkey EGFR protein (commercial, SB, catalog number 90285-C08H) (monkey); assay: ELISA, coated monkey EGFR protein, antibody 0.0001 nM
[32] = target: human EGFRvIII-His tag protein (extracellular domain Leu25-Ser378) (human) (UniProt P00533); remark: listed apart in the source
[33] = target: murine EGFR protein (murine) (UniProt Q01279); remark: listed apart in the source
[34] = target: human EGFRvIII-His tag protein (extracellular domain Leu25-Ser378) (human) (UniProt P00533); remark: listed apart in the source
[35] = target: murine EGFR protein (murine) (UniProt Q01279); remark: listed apart in the source
[36] = target: human EGFRvIII-His tag protein (extracellular domain Leu25-Ser378) (human) (UniProt P00533); remark: listed apart in the source
[37] = target: murine EGFR protein (murine) (UniProt Q01279); remark: listed apart in the source

Substance: anti-hel-hIgG1 (antibody)
- Average fluorescence intensity [1]: 35.4
- OD450 (Her2 protein (human)): 0.21
- Average fluorescence intensity [2]: 35.4
- OD450 [3]: 0.71
- Average fluorescence intensity [4]: 1560
- Max MFI [5]: 159
- Average fluorescence intensity [6]: 1560
- Average fluorescence intensity [7]: 1560
- OD450 [8]: 0.07
- Average fluorescence intensity [9]: 74
- OD450 [10]: 0.05

Substance: anti-hel-hIgG1 (negative control antibody against hen egg lysozyme)
- OD450 [11]: 0.21
- OD450 [12]: 0.09
- OD450 [13]: 0.07
- OD450 [14]: 0.09
- Max MFI [15]: 240
- OD450 [16]: 0.19
- OD450 [17]: 0.71
- Max MFI [18]: 199
- OD450 [19]: 0.06
- OD450 [20]: 0.05
- OD450 [21]: 0.12
- OD450 [22]: 0.6
- OD450 [23]: 0.07
- Max MFI [24]: 141
- OD450 [25]: 0.13
- OD450 [26]: 0.09
- OD450 [27]: 0.22
- OD450 [28]: 0.13
- OD450 [29]: 0.06
- OD450 [30]: 1.16
- OD450 [31]: 0.06
- OD450 [32]: 0.19
- OD450 [33]: 0.06
- OD450 [34]: 0.08
- OD450 [35]: 0.05
- OD450 [36]: 0.07
- OD450 [37]: 0.06
